Source: US20250304717A1, “CAMPTOTHECIN DERIVATIVE AND LIGAND-DRUG CONJUGATE” (HAINAN SIMCERE ZAIMING PHARMACEUTICAL CO., LTD., priority 2022, published 2025)
Like-named read-outs stand apart in the source and are kept apart here.

Key:
[1] = target: human ROR1 on stably transfected cell strain MCF7-hROR1 clone 2G2 (human) (UniProt Q01973); test: flow cytometry (FACS) on MCF7-hROR1 clone 2G2 cells, identification of the stably transfected clone
SKBR3 tumor cell = test: Binding of anti-HER2 ADC and antibody with SKBR3 tumor cell by FACS; set-up: species or system human
Experimental: SKBR3 cells (from ATCC) were collected, counted, and plated in a 96-well plate (Corning, 3795) at 2×10^5 cells/well. The serially diluted sample to be detected was added and incubated at 4° C. for 1 h. After the mixture was washed twice with ice PBS, Alexa Fluor-647 goat anti-human Fc secondary antibody (JacksonImmuno, 109-605-098) was added, and the mixture was incubated at 4° C. for 1 h. After the mixture was washed twice with ice PBS, the cells were resuspended, and the mean fluorescence intensity (MFI) was analyzed using a flow cytometer (BD FACSCanto™ II). Data were analyzed by four-parameter curve fitting using Graphpad Prism software to give EC50 values.

MCF7-hROR1 clone 2G2 = test: FACS identification of MCF7 cell line stably transfected with human ROR1 protein; assay type: binding
Experimental: A nucleotide sequence encoding the amino acid sequence of human ROR1 (SEQ ID NO: 105) was cloned into a pLVX lentiviral vector, and viral particles were prepared in HEK293T cells. After lentivirus infection, the MCF7 cell line (purchased from Chinese Academy of Science), was selectively cultured in a DMEM (Gibco, Cat. No. 11995073) medium containing 5 μg/mL puromycin (Gibco, Cat. No. A1113803) and 10% (w/w) fetal bovine serum (ExCell Bio, Cat. No. FND500) for 1 week. Positive cell populations with different expression levels were sorted on a flow cytometer FACS Aria III (purchased from BD Biosciences) using ROR1-Ab-1 and goat anti-mouse IgG (H+L) antibody (Jackson, Cat. No. 115605006) and cultured in 96-well plates at 37° C. with 5% (v/v) CO2. After about 2 weeks, a portion of the cells were selected for expansion, and positive cell populations with better growth, higher fluorescence intensity, and better homogeneity were selected, further expanded and cryopreserved in liquid nitrogen.

[2] = tested on: OVCAR3 subcutaneous tumor model; test: Efficacy in OVCAR3 subcutaneous tumor model-1; assay type: in vivo, Balb/c nude mice; conditions: 3 mg/kg, single intravenous injection
Description: Experimental reagent: Human ovarian cancer OVCAR3 cells were purchased from ATCC, RPMI-1640 medium was purchased from Gibco (Cat. No. A104910), fetal bovine serum was purchased from Excell (Cat. No. FND500), penicillin-streptomycin was purchased from Gibco (Cat. No. 15140122), bovine insulin was purchased from Yeasen (Cat. No. 40107ES60), 0.25% trypsin-EDTA was purchased from Gibco (Cat. No. 25200-072), D-PBS (phosphate-buffered saline without calcium and magnesium ions) was purchased from Hyclone (Cat. No. SH30256.01), and Matrigel was purchased from Corning (Cat. No. 356237).
Animal information: Balb/c nude mice, female, 5-6 weeks, weight about 14-20 g, purchased from Beijing Vital River Biotechnology Co., Ltd. The mice were bred in SPF-rated environment with air exhaust for each cage individually. All animals had free access to standard certified commercial laboratory diets and water.
Cell culture: The human ovarian cancer OVCAR3 cell strain was cultured in vitro under the conditions of RPMI-1640 added with 20% fetal bovine serum, 1% penicillin-streptomycin, and […] bovine insulin, and an incubator at 37° C. with 5% CO2. The cells were digested with a 0.25% trypsin-EDTA digestive solution once a week for passaging as per conventional practice. When the cell saturation was 80%-90% and a required amount was achieved, the cells were collected and counted.
Cell inoculation: 0.1 mL of OVCAR3 cell suspension (containing 1×10^7 cells, RPMI-1640: Matrigel, volume ratio 1:1) was inoculated subcutaneously into the axilla of each mouse. On day 26 after inoculation of the cells, the mice were randomly grouped and administrated based on tumor volume.
The day when random grouping was performed was day 0.
Tumor diameters were measured twice weekly using a vernier caliper. The tumor volume was calculated using the following formula: V=0.5a×b^2, where a and b represent the long diameter and short diameter of the tumor, respectively. Mouse body weight was measured twice weekly.

[3] = 37° C., 100 μg/mL
Experimental: ADC molecules (final concentration: 100 μg/mL) were separately incubated with human plasma (Oribiotech, PB021-C) and monkey plasma (Shinuoda Bio, SND-X0107) in an incubator at 37° C. The day of incubation was defined as day 0. Samples were taken on days 7, 14 and 28 and tested for the free small molecule.
300 μL of an internal standard working solution (acetonitrile preparation) was added to 20 μL of the sample, and the mixture was vortexed for mixing for 5 min and centrifuged for 5 min (14000 rpm). 4 μL of the supernatant was analyzed by LC-MS/MS (API 6500+).

IgG subtype control (antibody)
Mean fluorescence intensity of cells [1]: 54.7

Pertuzumab: anti-human HER2 monoclonal antibody; VH SEQ ID NO: 3, VL SEQ ID NO: 4 [reference compound]
EC50 (SKBR3 tumor cell): 3.73 nM

B1: ROR1-Ab-1: anti-human ROR1 monoclonal antibody, variable region sequence from patent WO2020198531A2; SEQ ID NO: 80/81 (antibody, V domains shown)
VH: QVQLQESGPGLVKPSQTLSLTCTVSGYAFTAYNIHWVRQAPGQGLEWMGSFDPYDGGSSYNQKFKDRLTISKDTSKNQVVLTMTNMDPVDTATYYCARGWYYFDYWGHGTLVTVSS
VL: DIVMTQTPLSLPVTPGEPASISCRASKSISKYLAWYQQKPGQAPRLLIYSGSTLQSGIPPRFSGSGYGTDFTLTINNIESEDAAYYFCQQHDESPYTFGEGTKVEIK
Mean fluorescence intensity of cells (MCF7-hROR1 clone 2G2): 26497

B2: ADC-DS: comparator CDH6 antibody-drug conjugate of Table 9, DAR 7.5 (conjugate, chains of the INN, looked up)
VH: EVQLVQSGAEVKKPGASVKVSCKASGYTFTRNFMHWVRQAPGQGLEWMGWIYPGDGETEYAQKFQGRVTITADTSTSTAYMELSSLRSEDTAVYYCARGVYGGFAGGYFDFWGQGTLVTVSS
VL: DIQMTQSPSSLSASVGDRVTITCKASQNIYKNLAWYQQKPGKAPKLLIYDANTLQTGVPSRFSGSGSGSDFTLTISSLQPEDFATYFCQQYYSGWAFGQGTKVEIK
modifications: deruxtecan payload, DAR 7.5
Mean tumor volume (mm^3) Day 0 ([2]; Table 23): 154.4 mm^3
Mean tumor volume (mm^3) Day 4 ([2]; Table 23, Day 4): 211.3 mm^3
Mean tumor volume (mm^3) Day 7 ([2]; Table 23, Day 7): 194.1 mm^3
Mean tumor volume (mm^3) Day 11 ([2]; Table 23, Day 11): 159.5 mm^3
Mean tumor volume (mm^3) Day 14 ([2]; Table 23, Day 14): 131.5 mm^3
Mean tumor volume (mm^3) Day 18 ([2]; Table 23, Day 18): 95.5 mm^3
Mean tumor volume (mm^3) Day 22 ([2]; Table 23): 73.6 mm^3
Mean tumor volume (mm^3) Day 25 ([2]; Table 23, Day 25): 66.0 mm^3
Mean tumor volume (mm^3) Day 28 ([2]; Table 23, Day 28): 77.8 mm^3
TGI (%) Day 28 ([2]; Table 23, Day 28): 110.6%
Mean tumor volume (mm^3) Day 0 ([2]; Table 24): 145.0 mm^3
Mean tumor volume (mm^3) Day 5 ([2]; Table 24, Day 5): 165.9 mm^3
Mean tumor volume (mm^3) Day 8 ([2]; Table 24, Day 8): 153.4 mm^3
Mean tumor volume (mm^3) Day 12 ([2]; Table 24, Day 12): 91.4 mm^3
Mean tumor volume (mm^3) Day 16 ([2]; Table 24, Day 16): 56.2 mm^3
Mean tumor volume (mm^3) Day 19 ([2]; Table 24, Day 19): 41.2 mm^3
Mean tumor volume (mm^3) Day 22 ([2]; Table 24): 28.9 mm^3
Mean tumor volume (mm^3) Day 27 ([2]; Table 24, Day 27): 23.4 mm^3
TG (%) Day 27 ([2]; Table 24, Day 27): 134.2%
Free small molecule % ([3]; Human plasma, incubation 0 day): 0.59%
Free small molecule % ([3]; Human plasma, incubation 7 days): 0.72%
Free small molecule % ([3]; Human plasma, incubation 14 days): 1.21%
Free small molecule % ([3]; Human plasma, incubation 28 days): 1.90%
Free small molecule % ([3]; Monkey plasma, incubation 0 day): 0.64%
Free small molecule % ([3]; Monkey plasma, incubation 7 days): 2.28%
Free small molecule % ([3]; Monkey plasma, incubation 14 days): 4.03%
Free small molecule % ([3]; Monkey plasma, incubation 28 days): 9.66%
